Target: recombinant human DP IV, wild type (human) (UniProt P27487)
Assay: photometric assay, competition with the standard substrate GP-4NA

Sequence of recombinant human DP IV, wild type (human) (P27487 other isoform, or with tags, fused parts or gaps): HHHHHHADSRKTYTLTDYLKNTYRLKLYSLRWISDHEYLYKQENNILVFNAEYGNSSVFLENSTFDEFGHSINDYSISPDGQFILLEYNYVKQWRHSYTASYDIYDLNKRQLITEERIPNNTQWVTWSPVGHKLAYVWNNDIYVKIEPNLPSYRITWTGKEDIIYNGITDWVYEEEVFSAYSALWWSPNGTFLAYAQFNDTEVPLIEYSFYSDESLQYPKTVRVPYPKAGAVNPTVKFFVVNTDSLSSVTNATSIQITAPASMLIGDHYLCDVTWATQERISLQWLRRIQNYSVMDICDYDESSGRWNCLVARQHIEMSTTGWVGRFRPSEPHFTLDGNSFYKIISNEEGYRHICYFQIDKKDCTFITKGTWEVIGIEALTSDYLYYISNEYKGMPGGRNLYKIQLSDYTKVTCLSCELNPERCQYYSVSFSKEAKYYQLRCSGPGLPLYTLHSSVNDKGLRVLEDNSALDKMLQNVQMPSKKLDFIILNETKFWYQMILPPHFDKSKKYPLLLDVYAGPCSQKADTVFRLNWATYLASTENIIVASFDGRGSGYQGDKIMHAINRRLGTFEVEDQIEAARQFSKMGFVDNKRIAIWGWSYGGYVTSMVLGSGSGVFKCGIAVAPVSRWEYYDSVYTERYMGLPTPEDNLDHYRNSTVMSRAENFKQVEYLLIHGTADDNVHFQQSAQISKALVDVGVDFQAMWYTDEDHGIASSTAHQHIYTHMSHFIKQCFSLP

Ki: 113 µM
Substance: PACAP-27 (from UniProt P18509 132-158) (peptide)

Source: patent US20060234940A1
